The nature of this data set: soluble on expression in E. coli; label from the status in PepcDB or PDB records.
As for “MSSSLFAPTIETIDYPFPPKPVPLSDAQKADYKARIKQLLIEKDAVLVAHYYTDPEIQALAEETGGCVSDSLEMARFGRDHPAKTLIVAGVKFMGETAKILSPEKTILMPTLEATCSLDLGCPIDKFSAFCDAHPDHTVVVYANTSAAVKARADWVVTSSIALEIVEHLDSEGKKIIWGPDRHLGSYIAKQTGAEMLMWQGDCIVHDEFKANALRDLKSVYPDAAILVHPESPASVVAMADAVGSTSQLIKAAQTMPNERFIVATDRGIFYKMQQAAPGKTLIEAPTGGNGATCKSCAHCPWMAMNGLKAIEASLSNSDKTTHEIFVDEDLRVKALIPLTRMLDFAKTLNMKVKGNALEHHHHHH”, the “soluble on expression in E. coli” value is “not soluble”.
The same measure for “MSSSREENVYLAKLAEQAERYEEMVEFMEKVAKTVDTDELTVEERNLLSVAYKNVIGARRASWRIISSIEQKEESRGNDDHVSIIKDYRGKIETELSKICDGILNLLDSHLVPTASLAESKVFYLKMKGDYHRYLAEFKTGAERKEAAESTLVAYKSAQDIALADLAPTHPIRLGLALNFSVFYYEILNSPDRACSLAKQAFDEAISELDTLGEESYKDSTLIMQLLRDNLTLWNSDINDEAGGDEIKEASKHEPEEGKPAETGQ”: “soluble”.
The same measure for “MSSTAGGEVSINSGDLLLGTLSTSITKLEQQIRATQLSQKKLNSDCETMAEYLRDLSEYKQPVDLLPYVGKLNDSTIRVNNTHQKLDDLLERLTKLQRQIARETYKKKNSIKEQEPPVQPEN”: “not soluble”; for “MSSVPRFWRNLGSRYNLEGTRCKECGEYFYPPRNVCVNCRRMGELEPFKFKGTGEIVSYTLIHTGAEGFEGQAPYTLAIIKLDEGPRLTSQVVGNTDNIQIGTRVRSVFRKLGEDGERGMIYYGTKFVPVDALEHHHHHH”: “soluble”.
The same measure for “MSTAEQIATLENRINELELENKRLHETVAYLTRKLYGRSSEKTSALSVGQVSLFDEAEVYAVPQAPEPDLKEVQGYIRRKYKGQRTDLLKDIPHDKRLCTLAEEDRYCEACGTDLVSVGKEFIRTEIEFIPAKIRVIDYYRETFECRTCRKNGEPYMEKSPMPYPVIQHSMASPSTVAWIMHQKFVNHLPLYRQENEWKMLGVNLKRETMSNWILAAARDWLMPLVDLMHKKLLQEKYLHADETTVQVLNEEGRSNTTNSYMWVYSSGKYCKKQIRLFQYQPGRNGKYPQEFLKGFSGFLHTDAYSGYKKVPEITRCMCWTHLRRYFRDALPKDTQSPEATIPSQGIRFCNKLFEIEETLEKLTQEQRRLERLKQETPVLEAFWSWVDSVKDKVLPKSKIGEAIQYALNNKEDFMNYLLDGNCSISNNLSENSIRPFTLGRKNWLFSGSPRGADASAAVYSIVESAKANDINPYKYLYYIFSELPGVQFGQNPEFLEDYLPWSPDVQAACK”: “soluble”; for “MSTDIDCIVIGAGVVGLAIARALAAGGHEVLVAEAAEGIGTGTSSRNSEVIHAGIYYPADSLKARLCVRGKHLLYEYCAARGVPHQRLGKLIVATSDAEASQLDSIARRAGANGVDDLQHIDGAAARRLEPALHCTAALVSPSTGIVDSHALMLAYQGDAENDGAQLVFHTPLIAGRVRPEGGFELDFGGAEPMTLSCRVLINAAGLHAPGLARRIEGIPQDSIPPEYLCKGSYFTLAGRAPFSRLIYPVPQHAGLGVHLTLELGGQAKFGPDTEWITTEDYTLDPRRADVFYAAVRSYWPALPDGALAPGYTGIRPKISGPHEPAADFAIAGPASHGVAGLVNLYGIKSPGLTASLAIAEETLARLAALEHHHHHH”: “not soluble”; for “MSTENTLSVADLARENVRNLVPYQSARRLGGNGDVWLNANEFPTAVEFQLTQQTLNRYPECQPKAVIENYAQYAGVKPEQVLVSRGADEGIELVIRAFCEPGKDAILYCPPTYGMYSVSAETIGVERRTVPALENWQLDLQGISDNLDGTKVVFVCSPNNPTGQLINPQDLRTLLELTRGKAIVVADEAYIEFCPQATLTGWLVEYPHLVILRTLSKAFALAGLRCGFTLANEEVINLLLKVIAPYPLSTPVADIAAQALCPQGINAMRDRVAQTVQERQYLVNALQQTACVEHVFDSETNYILARFTASSSVFKSLWDQGIILRDQNKQPSLSGCLRITVGTRQENQRVIDALRAEPV”: “not soluble”.
Regarding “MSTETIEIFNNSDEWANQLKHALSKGENLALLHGLTPDILDRIYAYAFDYHEKGNITDAEIYYKFLCIYAFENHEYLKDFASVCQPKKKYQQAYDLYKLSYNYFPYDDYSVIYRMGQCQIGAKNIDNAMQCFYHIINNCEDDSVKSKAQAYIELLNDNSEDNGLEHHHHHH”, the “soluble on expression in E. coli” value is “not soluble”.
For the sequence “MSTFIRGPICGTDNCPSRLWRIIDGRRTCQYGHVMEGDVEFNDDEDDLNGLGAGVITRRLNLTTNATGSFQSSQLTNSQLLQQQQRQSHKKFKKLIGHEAKLLFLKSFQFILKRQIRWLITEMRFPKEFEHVAKIIWLKILKTINDQPQEELKLQLHMTSTISILYLASTHLSLPVYTCDYIKWICTAKMPYFQASEILPKSWRIQLPNYYVSILEGSISPFNGQLYNKIALTCGMIHFKEFFNSEISCQGLLLKLVMQCALPPEFYFYTKQVIEFEETDIRNLTLWERTDERHTGRVSNHAELRVLSYFMLTINWMLSFDRDRQYPLKWILSLTESLTQRTTTSESIGRNIVKVVYPDKPTSSDYFQWSEEETLEFLKWMEKQFLPTQTKSLHNENGSMEMTIDQKIARRKLYKIFPLDREANHDGEFNDSTHQLTFIEDLQERYAKQTPFFESNKIRDSLNYQEANPPARKEAIGRLLTHIASQLLVDFAISKEQLKDCISRIKNACLHRMN”, the “soluble on expression in E. coli” value is given as “not soluble”.
The same measure for “MSTHLQGSLFDQTDELGLGPLDGLRRTVLGAGAWIDLLPGWLSGADALFERLAADVPWRAERRKMYDQTVDVPRLLAYYRAGDTLPHPVLAEARDALSAHYVAELGEPFTTAGLCYYRDGRDSVAWHGDRIGRGAREDTMVAILSVGAPRDLALRPRGGGDVLRRPLGHGDLIVMGGSCQRTWEHAIPKSTRAAGPRISIQFRPSGVNLEHHHHHH”: “soluble”; for “MSTLELHHIGKSYQSVMVLDRIDLHVPPGSRTAIVGPSGSGKTTLLRIIAGFETPDAGKVILQGKAMFDGTTYVPAHKRGIGFVPQDGALFPHFTVAGNIGYGLKGSQRDKERRINELMDMVALDRRLSALWPHEISGGQQQRVALARALAQRPVLMLLDEPFSALDTALRASTRKAVAELLSEANIASILVTHDQTEALSFADQVAVMRAGKLAHVGPPQELYLRPVDEPTATFLGETLMLTAQLGTGLAHCALGQVKVDNPHRRGEARIMLRPEQITLTPLRPEQYNAASCLAKVIAIDFAGFISTLTLQIISSGETIEIKTISREDLHVGLTVGLDIMGQAHIFAE”: “not soluble”.
The same measure for “MSTQEVNITLTDFINQLDSNAEQVSFEQVMKVISENYNYLPATFNNGDLFNEAGTNEGSCKIFYFAKLNNLSEQQTLACFGRFYREDVVNNPQGNDHGNIRNFMQSGWSKVEFNSVALTPLT”: “not soluble”; for “MSTQVQDRIHDRRELTAVLLRALEQRHEVLDAIVDSEDHAEALTTVAGLLDTSEAYAEAVLNLTFRRLTKVERLRIQTELKDLDATLEWTSTDRPASTGRNFRLRPFTDTEEDAELFRRRCGEQVDDAGAQWSEDRVEKERTEGLSRVDDESAAWFVCEDTAENTAVGMVFGELSGREVDVAIWIAPDARKKGYGTAAVKHSRQELAAEFPGTVLVVR”: “not soluble”; for “MSTTDDTHNTLSTGKCPFHQGGHDRSAGAGTASRDWWPNQLRVDLLNQHSNRSNPLGEDFDYRKEFSKLDYSALKGDLKALLTDSQPWWPADWGSYVGLFIRMAWHGAGTYRSIDGRGGAGRGQQRFAPLNSWPDNVSLDKARRLLWPIKQKYGQKISWADLFILAGNVALENSGFRTFGFGAGREDVWEPDLDVNWGDEKAWLTHRHPEALAKAPLGATEMGLIYVNPEGPDHSGEPLSAAAAIRATFGNMGMNDEETVALIAGGHTLGKTHGAAAASHVGADPEAAPIEAQGLGWASSYGSGVGADAITSGLEVVWTQTPTQWSNYFFENLFKYEWVQTRSPAGAIQFEAVDAPDIIPDPFDPSKKRKPTMLVTDLTLRFDPEFEKISRRFLNDPQAFNEAFARAWFKLTHRDMGPKARYIGPEVPKEDLIWQDPLPQPLYQPTQEDIINLKAAIAASGLSISEMVSVAWASASTFRGGDKRGGANGARLALAPQRDWDVNAVAARVLPVLEEIQKTTNKASLADIIVLAGVVGIEQAAAAAGVSISVPFAPGRVDARQDQTDIEMFSLLEPIADGFRNYRARLDVSTTESLLIDKAQQLTLTAPEMTVLVGGMRVLGTNFDGSQNGVFTDRPGVLSTDFFANLLDMRYEWKPTDDANELFEGRDRLTGEVKYTATRADLVFGSNSVLRALAEVYACSDAHEKFVKDFVAAWVKVMNLDRFDLQ”: “not soluble”.
Regarding “MSTTFPLHTESFMLLDSGCLTNSDYFLPFALTDVLTTFSGMQHQPIIHFWQLDQAMILGMKDTRVPHLKEGIASLQENDYSVVVRNAGGLGVIADSGILNVSLILPNNSEHKLSIDAAYELMWAWLRQSFPEKEIDAFEITTSYCPGTYDLSIGGQKFAGIAQRRVKDGISVMIYISVNGNQLARGEVVRDFYLAGLQEQFGENGYPPVDPAVMANLETLIETPLTIDAVKTRLIEALPQQFEKSIDPNLTEPIITSEWFQTNLTVQLEKMAQRNALIKGEIL”, the “soluble on expression in E. coli” value is listed as “not soluble”.
The same measure for “MSTYQAATIVAAPNEFRVPFPPFVQISKVQFQREAGSRLLAASGWDGTCRVYEVGKLGDISEKLVFTHGKPLLTCTFAGYNKVAFGGVDHNVKLADIETGNGTQLGSHALAVRCMEFNPMSSLIVSGGWDSSVKLWDARSYGNGAIESVNVSSSVYAMDVLKHTILVGTKDRKIFMYDSRKLREPLQVRDSPLKYQTRAVQFFPTGEAFVVSSIEGRVAVEYVDQSGEEMMKRKYAFKCHREKDTDGTELIHPVHTVAFHPKYGTFATGGADGIVNIWDPFNRKRIIQLHKFETSISSLSFNEDGSQLAIATSYQYEKEIDPSPLPNNSITIRHITDPESRPK”: “not soluble”.
The same measure for “MSVAETEIPIPAATPSLTDACVHCGFCLSDCPSYRVLGRETDSPRGRVYLMDSLQQGRIELSDTVVEHFDTCLGCLACTSACPSGVQYDQLIEEMRQRIAQEHRRPWPEAIWRKLLEHHHHHH”: “not soluble”; for “MSVATGSSETAGGASGGGARVFFQSPRGGAGGSPGSSSGSGSSREDSAPVATAAAAGQVQQQQQRRHQQGKVTVKYDRKELRKRLVLEEWIVEQLGQLYGCEEEEMPEVEIDIDDLLDADSDEERASKLQEALVDCYKPTEEFIKELLSRIRGMRKLSPPQKKSV”: “soluble”.
The same measure for “MSVDKSPVYEVKAVPVEKVLANDYNPNVVAPPEMKLLELSIWEDGFTMPCVCYYNKEEDNYILVDGYHRYTVLKTSKRIYKRENGLLPIVVIDKDLSNRMSSTIRHNRARGMHN”: “soluble”; for “MSVDKSPVYEVKAVPVEKVLANDYNPNVVAPPEMKLLELSIWEDGFTMPCVCYYNKEEDNYILVDGYHRYTVLKTSKRIYKRENGLLPIVVIDKDLSNRMSSTIRHNRARGMHNIELMCNIVAELDRAGMSDQWIMKNIGMDRDELLRLKQISGLADLFANREFSIPDEVAPTETERKTL”: “not soluble”.
In the case of “MSVDPACPQSLPCFEASDCKESSPMPVICGPEENYPSLQMSSAEMPHTETVSPLPSSMDLLIQDSPDSSTSPKGKQPTSAENSVAKKEDKVPVKKQKTRTVFSSTQLCVLNDRFQRQKYLSLQQMQELSNILNLSYKQVKTWFQNQRMKSKRWQKNNWPKNSNGVTQKASAPTYPSLYSSYHQGCLVNPTGNLPMWSNQTWNNSTWSNQTQNIQSWSNHSWNTQTWCTQSWNNQAWNSPFYNCGEESLQSCMHFQPNSPASDLEAALEAAGEGLNVIQQTTRYFSTPQTMDLFLNYSMNMQPEDV”, the “soluble on expression in E. coli” value is “soluble”.

(Values after the DeepSol protein solubility set.)
